Data on one molecule can be found in patent US20260209384A1 (Stanford University, published 2026).

This assay addresses T1, recombinant human GPC2 (R&D Systems) (human, UniProt Q8N158 24-554, limits assumed, labelled with Dylight488 or Dylight650 in the flow cytometry assays; unlabelled in the ELISA).
T1 construct: extracellular domain; also called hGPC2; human Glypican-2
T1 sequence (looked up): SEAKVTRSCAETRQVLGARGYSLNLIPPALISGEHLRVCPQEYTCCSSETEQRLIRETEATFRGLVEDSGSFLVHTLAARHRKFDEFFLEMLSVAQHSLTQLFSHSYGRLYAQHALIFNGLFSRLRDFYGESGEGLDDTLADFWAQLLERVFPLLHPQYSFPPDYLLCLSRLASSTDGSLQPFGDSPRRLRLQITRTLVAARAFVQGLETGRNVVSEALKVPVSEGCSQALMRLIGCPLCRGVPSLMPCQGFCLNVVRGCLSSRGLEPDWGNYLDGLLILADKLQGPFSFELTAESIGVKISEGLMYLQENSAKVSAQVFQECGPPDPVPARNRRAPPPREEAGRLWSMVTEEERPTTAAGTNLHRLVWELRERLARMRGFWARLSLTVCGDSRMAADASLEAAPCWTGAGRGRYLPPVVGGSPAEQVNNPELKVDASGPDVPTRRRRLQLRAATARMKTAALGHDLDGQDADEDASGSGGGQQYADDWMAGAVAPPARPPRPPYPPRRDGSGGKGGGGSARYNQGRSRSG
Kind of assay: panning of a human naive Fab phage library against recombinant human GPC2. From the text:
A naïve human Fab phage display library constructed from peripheral blood B cells of 50 healthy donors, was used for selection of Fabs against purified recombinant GPC2 ectodomain (R&D Systems) as previously described. The isolated Fabs were expressed, purified and tested for binding to the GPC2 ectodomain through ELISA.

B1: GPC2.27 (Fab from a human naive Fab phage library) (Fab, V domains shown)
VH: EVQLVESGPGLVKPSETLSLTCAVSGYSISSGYYWGWIRQPPGKGLEWIGSIYHSGSTYYNPSLKSRVTISVDTSKNQFSLKLSSVTAADTAVYYCASLPSRGGFDYWGQGTLVTVSS
VL: EIVMTQSPATLSASVGDRVTIACRASQTISRYLNWYQQKPGKAPKLLIYAASSLQSGVSSRFSGSGSGTEFTLTISSLQPEDFATYFCQQTYSPPITFGQGTRLEIKR
notes: Human Fab selected by phage display
In the case of B1, the binding result was “binds”.
